Target: plastidic glutamine synthetase (GS2), spinach, 420 kDa stromal holoenzyme (spinach (Spinacia oleracea), endogenous in leaf chloroplasts)
Assay: native gel or EMSA; BN-PAGE (4-16% Bis-Tris gradient gel, 4°C) of stroma and thylakoid proteins of chloroplasts, western blot, with 2D SDS-PAGE; extraction in 20 mM Hepes-KOH pH 7.5, or potassium phosphate pH 6 or pH 8 with or without 0.1 M NaCl, 10 mM DTT or 10 mM ascorbic acid

stoichiometry N: 10
Substance: plastidic glutamine synthetase (GS2), spinach, 420 kDa stromal holoenzyme
